Measurements published in PMC3408336.

Assays:
[1] = biological target: SF162 gp120 D474N (HIV-1 SF162 (subtype B)); experiment: fluorescence polarisation; fluorescently labelled M48 or M48U1 with purified monomeric recombinant SF162 gp120 (concentrations standardised by ELISA with D7324); LJL Analyst reader; Kd by non-linear regression; results given as fold increase in Kd relative to native SF162 gp120; as in ref. 68
[2] = biological target: SF162 gp120 S375N (HIV-1 SF162 (subtype B)); experiment: as above
[3] = biological target: SF162 gp120 G335R (HIV-1 SF162 (subtype B)); experiment: as above
[4] = biological target: SF162 gp120 L494V (HIV-1 SF162 (subtype B)); experiment: as above
[5] = biological target: CD4 mimetic miniprotein M48U1; experiment: fluorescence polarization; conditions: read off a plot

Substance | ratio to parent [5] | further results
CD4 mimetic miniprotein M48U1 (designed binder) | – | fold Kd relative to WT SF162 gp120 [1]: 1 fold; fold Kd relative to WT SF162 gp120 [2]: 1 fold; fold Kd relative to WT SF162 gp120 [3]: 1 fold; fold Kd relative to WT SF162 gp120 [4]: 1 fold
SF162 gp120, wild type (monomeric recombinant) G471R | 3.8 | –
SF162 gp120, wild type (monomeric recombinant) H105Y | 3.8 | –
SF162 gp120, wild type (monomeric recombinant) S375R | 1900 | –
SF162 gp120, wild type (monomeric recombinant) V255M | 9.6 | –
